In IntAct's records for PubMed 25710501:

B1: Granule-bound starch synthase 1, chloroplastic/amyloplastic (Arabidopsis thaliana (Mouse-ear cress)), Q9MAQ0 (parent)
chain: MATVTASSNFVSRTSLFNNHGASSCSDVAQITLKGQSLTHCGLRSFNMVDNLQRRSQAKPVSAKSSKRSSKVKTAGKIVCEKGMSVIFIGAEVGPWSKTGGLGDVLGGLPPALAARGHRVMTICPRYDQYKDAWDTCVVVQIKVGDKVENVRFFHCYKRGVDRVFVDHPIFLAKVVGKTGSKIYGPITGVDYNDNQLRFSLLCQAALEAPQVLNLNSSKYFSGPYGEDVVFVANDWHTALLPCYLKSMYQSRGVYMNAKVVFCIHNIAYQGRFAFDDYSLLNLPISFKSSFDFMDGYEKPVKGRKINWMKAAILEAHRVLTVSPYYAQELISGVDRGVELHKYLRMKTVSGIINGMDVQEWNPSTDKYIDIKYDITTVTDAKPLIKEALQAAVGLPVDRDVPVIGFIGRLEEQKGSDILVEAISKFMGLNVQMVILGTGKKKMEAQILELEEKFPGKAVGVAKFNVPLAHMITAGADFIIVPSRFEPCGLIQLHAMRYGTVPIVASTGGLVDTVKDGYTGFHIGRFNVKCEVVDPDDVIATAKAVTRAVAVYGTSAMQEMVKNCMDQDFSWKGPARLWEKVLLSLNVAGSEAGTEGEEIAPLAKENVATP
partner: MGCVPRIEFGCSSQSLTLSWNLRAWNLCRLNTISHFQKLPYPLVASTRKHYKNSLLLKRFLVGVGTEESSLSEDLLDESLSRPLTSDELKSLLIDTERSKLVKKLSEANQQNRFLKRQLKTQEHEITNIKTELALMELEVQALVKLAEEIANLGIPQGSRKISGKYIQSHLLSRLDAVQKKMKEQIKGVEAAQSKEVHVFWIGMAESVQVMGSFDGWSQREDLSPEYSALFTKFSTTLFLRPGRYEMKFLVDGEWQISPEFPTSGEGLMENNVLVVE

Variants of: B1
Settings: with ptst_arath PTST

Row | effect of a mutation on the interaction | Variant
1 | disrupting interaction strength | K441E;E452K
2 | decreasing interaction strength | E449K
3 | decreasing interaction strength | K441E
4 | disrupting interaction strength | E452K

Variants of: B1
Settings: with ptst_arath PTST
Remark: another data set of the same source

Row | effect of a mutation on the interaction | Variant
5 | decreasing interaction strength | K441E;E452K
6 | decreasing interaction strength | E452K
